Experimental data as given in patent publication US20170305986A1, “NOVEL TGF-ALPHA MUTANT PROTEINS” (NEUROREPAIR, INC., priority 2014, published 2017).

How the values were obtained:
EGFR [1] = target: T1, EGFR (Homo sapiens, UniProt P00533); assay: Cell based EGFR phosphorylation assay in A431 cells; conditions: compared to wild type hTGFα
T1 construct: A431 cells, which are known to express high levels of EGFR on their surface; host or cells: A431 cells
Experimental: A cell based EGFR phosphorylation assay was set up to determine the binding activity of hTGFα to EGFR using a functional assay. A431 cells were seeded in 96 well formats and were serum starved overnight. The cells were washed in serum free media and incubated with 50 ul of 0, 50, 100 or 200 ng/ml of EGF (FIG. 5A, column 1) or hTGFα (FIG. 5A, column 2) in DMEM at 37° C. for 10 min: The cells were then washed with PBS and lysed. Half of the cell lysate were used to determine the level of total EGFR (FIG. 5C) using Cell Signaling kit #7250 and the other half of the cell lysate were used to determined the level of phosphorylated EGFR (FIG. 5B) using Cell Signaling kit #7240 following vendor's protocols.
EGFR phosphorylation. BAP060-hTGFα -B (mature hTGFα, aa 40-89, with PE1B signal sequence) was transformed into E. coli BL21 (DE3) competent cells. […] Half of the cell lysate were used to determine the level of total EGFR using Cell Signaling kit #7250 and the other half of the cell lysate were used to determined the level of phosphorylated EGFR using Cell Signaling kit #7240 following vendor's protocols.
E. coli BL21 cells were transformed with BAP060-hTGFα -B CPS™ mutants and induced with IPTG at 37° C. The periplasmic fractions after IPTG induction were collected and the expression levels of hTGFα determined by quantitation ELISA, as described above. […]

EGFR [2] = target: T1, EGFR; assay: Cell based (affinity) ELISA: binding of hTGFα to EGFR on A431 cells; conditions: compared to wild type hTGFα
Experimental: Binding activity of hTGFα to EGFR was also confirmed by cell based ELISA and FACS analysis using A431 cells, which are known to express high levels of EGFR on their surface. For the cell-based assay, A431 cells (ATCC#CRL1555) were seeded into the wells of a 96 well plate. A 1000 ng/ml solution of human TGFα (hTGFα) was serially diluted (two-fold dilutions), aliquots of each dilution added to the immobilized cells, and the plates incubated to allow binding. (FIG. 3A) After washing, bound hTGFα was detected using biotinylated anti-hTGFα (R&D Systems #BAF239) and Streptavidin conjugated with HRP. TMB was added to each well, the reactions stopped after four minutes, and the samples read as described above in paragraph a). (FIG. 3B) The standard curve was generated using Softmax. (FIG. 3C)
BAP060-hTGFα-B (mature hTGFα, aa 40-89, with PelB signal sequence) wild type and CPE™ mutants were transformed into E. coli BL21 (DE3) competent cells, and recombinant protein expression induced by addition of 1 mM IPTG at 37° C. for 3 hours in 96 well format (1st confirmation) or in 14 ml tubes (2nd confirmation). After three hours, the cells were collected and periplasmic proteins prepared by incubating the cells in OS buffer (200 mM Tris-HCl, pH 7.5, 20% sucrose, 1 mM EDTA) with DNAse, RNAse and lysozyme. After addition of lysis buffer (10 mM Tris, pH 7.5, 50 mM KCl, 1 mM EDTA and 0.1% of Na-deoxycholate) to the cells in OS buffer, the cells were centrifuged and the supernatants, which contained the periplasmic fractions, were transferred to microcentrifuge tubes. The concentration of hTGFα was determined by quantitation ELISA, and 25 ng/ml of hTGFα were incubated with A431 cells (ATCC#CRL1555) immobilized on the plate. Bound hTGFα was detected with biotinylated anti-hTGFα (R&D Systems, #BAF239) and Streptavidin conjugated with HRP. The reactions were stopped by addition of HCl after TMB was added to the wells and read immediately. OD450 nm value of the reactions was measured with a Molecular Device SPECTRAmax. The initial screen identified 94 CPE™ mutants that had 1.5 fold higher binding activity compared to the wild type TGFα in the primary screening. The sequences of these CPE™ mutants are shown below in Table 2, while select characteristics for all of the CPE™ mutants can be found in FIG. 11A.
A first confirmation was performed by re-transforming E. coli BL21 cells with plasmids containing the 94 CPE™ mutants, collected the periplasmic fractions after IPTG induction and performed quantitation ELISA and cell based ELISA. This first confirmation identified 37 CPE™ mutants having a higher binding activity compared to the wild type TGFα . The second confirmation identified 27 CPE™ putative hits that consistently had higher binding activity compared to the wild type TGFα. These 27 CPE™ mutants were then tested in a cell based EGFR phosphorylation assay to confirm the functional activity of the CPE™ mutants. (FIGS. 11B and 12B)
In addition, 15 CPS™ mutants (containing up to 5 mutations) having an increased ability to induce the phosphorylation of EGFR, relative to the wild type hTGFα (FIG. 14), were selected for cell based titration ELISA to confirm their binding activities (FIG. 15). Briefly, BAP060-hTGFα-B (mature hTGFα, aa 40-89, with PelB signal sequence) wild type and CPS™ mutants were transformed into E. coli BL21 (DE3) competent cells. Protein was expressed upon the addition of 1 mM IPTG at 37° C. for 3 hours in 96 well format. Cells were collected after induction and periplasmic proteins prepared by incubating the cells in OS buffer with DNAse, RNAse and lysozyme. Lysis buffer was added to the cells in OS buffer, the cells centrifuged, and the supernatants containing the periplasmic fractions transferred to a clean set of microcentrifuge tubes. Concentration of hTGFα in each sample was determined by quantitation ELISA. […]

neuronal stem cell = conditions: ICV or intrastriatal infusion over 18 days, rat brain; cited from earlier work
[3] = system: central nervous system (CNS); conditions: peripheral route, animal model of Parkinson's disease; cited from earlier work
[4] = Physical characteristics of mutants (isoelectric point, hydrophobicity); format: physicochemical; conditions: compared to wild type hTGFα

BAP060-F017L: CPE™ single-substitution mutant of mature hTGFα
Mutant Characteristics: P-EGFR induction (EGFR [1]): P-EGFR induction,
Mutant Characteristics: affinity (EGFR [2]): Increased affinity,

BAP060-E027L: CPE™ single-substitution mutant of mature hTGFα
Mutant Characteristics: affinity (EGFR [2]): Neutral affinity,

BAP060-A050W: CPE™ single-substitution mutant of mature hTGFα
Mutant Characteristics: affinity (EGFR [2]): Increased affinity,

TGF-α: member of the EGF family that binds the EGF receptor
neuronal stem cell proliferation (neuronal stem cell): induced neuronal stem cell proliferation
abnormal motor behavior [3]: ameliorates abnormal motor behavior
neurogenesis of the central nervous system [3]: promotes neurogenesis of the central nervous system (CNS)

BAP060-A046Y: CPE™ single-substitution mutant of mature hTGFα
Mutant Characteristics: affinity (EGFR [2]): Increased affinity,

BAP060-A041D: CPE™ single-substitution mutant of mature hTGFα
Mutant Characteristics: affinity (EGFR [2]): Neutral affinity,
Mutant Characteristics: PI (isoelectric point) [4]: lower PI
Mutant Characteristics: hydrophobicity [4]: decreased

BAP060-S036R: CPE™ single-substitution mutant of mature hTGFα
Mutant Characteristics: affinity (EGFR [2]): Increased affinity,

BAP060-Q014G: CPE™ single-substitution mutant of mature hTGFα
Mutant Characteristics: affinity (EGFR [2]): Increased affinity,
